Results on 3 molecules are retold here after patent US20170037129A1.

By EC50 is commonly meant the concentration at which the effect is half-maximal. Lower therefore signals an effect from little substance.

Test [1] concerns the target endogenous human CD147 expressed on human cancer cells (human) (UniProt P35613). Briefly: flow cytometry on PC-3 cells. In general terms: In flow cytometry, cells or beads pass a laser one at a time.
Test [2] has the same target. The test is described as follows: flow cytometry on A549 cells.
For test [3] the target is unchanged. The test is described as follows: flow cytometry on K562 cells.

B1: C4sh1A6 (antibody, V domains shown)
VH: QVQLVESGGGVVQPGRSLRLSCAASGFTFSTYAMHWVRQAPGRGLEWVAGISYDGSNKYHADPVKGRFTISRDNSKNTLYLQMNNLRVEDSAVYYCAGDRSGGLDVWGQGTTVTVSS
VL: DIVMTQSPSSLSASVGDRVTITCRASQGISNSLAWYQQKSGKAPKLLLYAASGLESGVPSRFSGSGSGTDYTLTISSLQPEDFATYYCQQSYSMPLTFGGGTKVEIK
As for B1, the EC50 in test [1] was above 100 nM; in test [2] it was 35.9 nM; in test [3] it was 0.6 nM.

B2: C4sh1B2 (antibody, V domains shown)
VH: QMQLVQSGAEVKKPGASVKVSCKASGYTFTGYYIHWVRQAPGQGLEWMGWINPNSGGTIYAQKFQGRVTMTRDTSISTAYMELSRLRSDDTAVYYCARGSTNFDSWGQGTLVTVSS
VL: QAGLTQPPSASGSPGQSVTISCTGTSSDVGGYNSVSWYQQHPGKAPKLMIYDVSNRPSGVSNRFSGSKSGNTASLTISGLQAEDEADYYCSSYINSGTLVFGGGTKLTVL
Turning to B2, the EC50 in test [1] came out at 4.5 nM; in test [2], 3.73 nM; in test [3], 1.55 nM.

B3: C4R1B2 (antibody, V domains shown)
VH: QVQLVQSGAEVKKPGASVKVSCKASGYGFTSYAIHWLRQAPGQRLEWMGWINPGNGNTKYSQKFQGRVTITRDTSATTAYMELTSLRSEDSDTAVYYCARDLDGGSFDHWGQGTLVTVSS
VL: QSVVTQPASVSGSPGQSITISCTGTSSDVGSYNLVSWYQQHPGKAPKLMIYDVTNRPSGVSNRFSGSKSGNTASLTISGLQAEDEADYYCSSYTRSSTYVFGTGTKVTVL
With B3, the concentration giving a half-maximal response (EC50) in test [1] is above 100 nM; in test [2], 83.8 nM; in test [3] it was 168 nM.
